# Ends that are not written are not given here.
# Assays:
# [1] = system: vesicular stomatitis virus (VSV); assay type: cell-based
# vaccinia virus [2] = assay type: in vivo, mice (C57BL/6); conditions: i.n. infection; peptides 200 μg or murine IFNα1 2,000 U i.p. for six consecutive days; FIG. 12
# [3] = Body weight of mice under IFNα1 or lipo-peptide (FIG. 13); conditions: 5×10^3 U/mouse i.p. on alternate days (peptide 100 μg), day 11 difference p<0.05
# EMC virus = assay type: cell-based, encephalomyocarditis (EMC) virus
# [4] = system: experimental allergic encephalomyelitis (EAE) in SJL/J mice; assay: Relapsing/remitting EAE in SJL/J mice immunized with MBP; assay type: in vivo; conditions: 15 μg/mouse i.p. every other day from day 12 post-immunization with MBP; FIG. 6C
# [5] = IFN toxicity in vivo: body weight (FIG. 7); conditions: 2,000 U per mouse of IFN mimetic I.P. on alternate days
# lymphocytes = assay: IFN toxicity in vivo: lymphocyte count on blood smears (Table 4); conditions: day 11, i.p. alternate days for ten days, IFN mimetics 2 × 10^3 U in 200 μg per mouse, IFNβ 10^3 U/mouse; for % Reduction (lymphocytes): versus PBS
# vaccinia virus [6] = assay type: cell-based
molecule,measurement,setting,value
lipo-IFNα1(152-189) (LYLTEKKYSPCAWEVVRAEIMRSLSLSTNLQERLRRKE; also: lipid attached; listed as Homo sapiens),antiviral activity against vesicular stomatitis virus (VSV),[1],showed antiviral activity
same,protection against vaccinia virus lethal infection (survival),vaccinia virus [2],inhibited vaccinia virus lethal infection of mice
same,weight loss,[3],not seen
"lipo-IFNβ(150-187) (ILHYLKAKEYSHCAWTIVRVEILRNFYFINRLTGYLRN; also: lipidated; UniProt P01574 150-187, looked up, fragment)",antiviral activity against vesicular stomatitis virus (VSV),[1],showed antiviral activity
lipo-IFNτ(156-195) (EKGYSDCAWEIVRVEMMRALTSSTTLQKRLTKTGGDLNSP; also: lipid attached),antiviral activity against vesicular stomatitis virus (VSV),[1],showed antiviral activity
IFNα1(69-189)R9 (protein) RRRRRRRRRNQFQKAPAISVLHELIQQIFNLFTTKDSSAAWDEDLLDKFCTELYQQLNDLEACVMQEERVGETPLMNADSILAVKKYFRRITLYLTEKKYSPCAWEVVRAEIMRSLSLSTNLQERLRRKE,antiviral activity against EMC virus,EMC virus,possessed antiviral activity
same,therapeutic efficacy in EAE (mean daily severity of disease),[4],essentially complete therapeutic efficacy
same,body weight change,[5],gained weight
same,Lymphocytes (%),lymphocytes,75 ± 3%
same,% Reduction (lymphocytes),lymphocytes,4%
IFNβ(100-187)R9 (protein) RRRRRRRRRWNETIVENLLANVYHQINHLKTVLEEKLEKEDFTRGKLMSSLHLKRYYGRILHYLKAKEYSHCAWTIVRVEILRNFYFINRLTGYLRN,antiviral activity against EMC virus,EMC virus,possessed antiviral activity
same,body weight change,[5],gained weight
same,Lymphocytes (%),lymphocytes,72 ± 5%
same,% Reduction (lymphocytes),lymphocytes,9%
"IFNα1 (protein, UniProt P01562 24-189, looked up) Interferon alpha-1/13: CDLPETHSLDNRRTLMLLAQMSRISPSSCLMDRHDFGFPQEEFDGNQFQKAPAISVLHELIQQIFNLFTTKDSSAAWDEDLLDKFCTELYQQLNDLEACVMQEERVGETPLMNADSILAVKKYFRRITLYLTEKKYSPCAWEVVRAEIMRSLSLSTNLQERLRRKE",protection against vaccinia virus (VV) infection,vaccinia virus [6],did not protect
same,protection against vaccinia virus lethal infection (survival),vaccinia virus [2],ineffective
same,weight loss,[3],weight loss seen
"IFNα1(69-189) (protein, listed as Homo sapiens) NQFQKAPAISVLHELIQQIFNLFTTKDSSAAWDEDLLDKFCTELYQQLNDLEACVMQEERVGETPLMNADSILAVKKYFRRITLYLTEKKYSPCAWEVVRAEIMRSLSLSTNLQERLRRKE",therapeutic efficacy in EAE (mean daily severity of disease),[4],developed paraplegia

# From US9951111B2, “Type I interferon mimetics as therapeutics for cancer, viral infections, and multiple sclerosis” (priority 2011, dated 2018)
